Assay results taken from the RNAGym collection of RNA variant scans (doi:10.7554/elife.90254).

B1: LINE1-full (parent)
chain: UACGUAGGUGGUUUUCCCCUGAUAGUGCUAAGGGGGCCUGGAAGUUUGGACUGGGCAGAGCUCAACACAGCGUGGCAAAGUGGCUGUGGCUAGACUGCCUCUCUGGAUUCCUCGUCACUCAGCAGGGCAUCUCUGAGAGAAAUGCC

Variants of: B1
Assay: self-cleavage, relative activity (ratio to wild type); higher = more cleavage; in vitro, sequencing; the parent is a self-cleaving ribozyme

Variant	self-cleavage
UACGUAGGUGGUUUUCCCCUGAUAGUGCUAAGGGGGCCUGGAAGUUUGGACUGGGCAGAGCUCAACACAGCGCUGCAAAGUGGCUGUGGCUAGACUGCCUCUCUGGAUUCCUCGUCACUCAGCAGGGCAUCUCUGAGAGAAAUGCC [U73C G74U]	1.64
UACGUAGGUGGUUUUCCCCUGAUAGUGCUAAGGGGGCCUGGAAGUUUGGACUGGGCAGAGCUCAACACAGCGCGGCAAAGUGGCUGUGGCUAGACCGCCUCUCUGGAUUCCUCGUCACUCAGCAGGGCAUCUCUGAGAGAAAUGCC [U73C U96C]	0.11
UACGUAGGUGGUUUUCCCCUGAUAGUGCUAAGGGGGCCUGGAAGUUUGGACUGGGCAGAGCUCAACACAGCGCGGCAAAGUGGCUGUGGCUAGACAGCCUCUCUGGAUUCCUCGUCACUCAGCAGGGCAUCUCUGAGAGAAAUGCC [U73C U96A]	0.14
UACGUAGGUGGUUUUCCCCUGAUAGUGCUAAGGGGGCCUGGAAGUUUGGACUGGGCAGAGCUCAACACAGCGCGGCAAAGUGGCUGUAGCUAGACUGCCUCUCUGGAUUCCUCGUCACUCAGCAGGGCAUCUCUGAGAGAAAUGCC [U73C G88A]	0.06
UACGUAGGUGGUUUUCCCCUGAUAGUGCUAAGGGGGCCUGGAAGUUUGGACUGGGCAGAGCUCAACACAGCGCGGCAAAGUGGCUGUGGCUAGACUGUCUCUCUGGAUUCCUCGUCACUCAGCAGGGCAUCUCUGAGAGAAAUGCC [U73C C98U]	0.36
UACGUAGGUGGUUUUCCCCUGAUAGUGCUAAGGGGGCCUGGAAGUUUGGACUGGGCAGAGCUCAACACAGCGCGGCAAAGUGGCAGUGGCUAGACUGCCUCUCUGGAUUCCUCGUCACUCAGCAGGGCAUCUCUGAGAGAAAUGCC [U73C U85A]	0.08
UACGUAGGUGGUUUUCCCCUGAUAGUGCUAAGGGGGCCUGGAAGUUUGGACUGGGCAGAGCUCAACACAGCGCGGCAAAGGGGCUGUGGCUAGACUGCCUCUCUGGAUUCCUCGUCACUCAGCAGGGCAUCUCUGAGAGAAAUGCC [U73C U81G]	2.04
UACGUAGGUGGUUUUCCCCUGAUAGUGCUAAGGGGGCCUGGAAGUUUGGACUGGGCAGAGCUCAACACAGCGCGGCAAAGAGGCUGUGGCUAGACUGCCUCUCUGGAUUCCUCGUCACUCAGCAGGGCAUCUCUGAGAGAAAUGCC [U73C U81A]	2.36
UACGUAGGUGGUUUUCCCCUGAUAGUGCUAAGGGGGCCUGGAAGUUUGGACUGGGCAGAGCUCAACACAGCGCGGCAAAGUGGCUUUGGCUAGACUGCCUCUCUGGAUUCCUCGUCACUCAGCAGGGCAUCUCUGAGAGAAAUGCC [U73C G86U]	0.03
UACGUAGGUGGUUUUCCCCUGAUAGUGCUAAGGGGGCCUGGAAGUUUGGACUGGGCAGAGCUCAACACAGCGCGGCAAAGUGGCUGUGGCUAGACUGCCUCUCUGGAUUCCUCGUCACUCAGUAGGGCAUCUCUGAGAGAAAUGCC [U73C C123U]	1.05
UACGUAGGUGGUUUUCCCCUGAUAGUGCUAAGGGGGCCUGGAAGUUUGGACUGGGCAGAGCUCAACACAGCGCGGCAAAGUGACUGUGGCUAGACUGCCUCUCUGGAUUCCUCGUCACUCAGCAGGGCAUCUCUGAGAGAAAUGCC [U73C G83A]	1.63
UACGUAGGUGGUUUUCCCCUGAUAGUGCUAAGGGGGCCUGGAAGUUUGGACUGGGCAGAGCUCAACACAGCGCGGCAAAGUGGCUGUGGCUAGACUGCCUCUCUGGAUUCCUCGUCACUCAGCAGGGCAUCUCUGAGAGAAAUGCA [U73C C146A]	2.24
UACGUAGGUGGUUUUCCCCUGAUAGUGCUAAGGGGGCCUGGAAGUUUGGACUGGGCAGAGCUCAACACAGCGCGGCAAAGUGGCUGUGGCUAGACUGCCUCUCUGGAUUCCUCGUCACUCAGCAGGGCAUCUCUGAGAGAAAUGCU [U73C C146U]	1.04
UACGUAGGUGGUUUUCCCCUGAUAGUGCUAAGGGGGCCUGGAAGUUUGGACUGGGCAGAGCUCAACACAGCGCGGCAAAGUGGCUGUGGCUAGACUGCCUCUCUGGAUUCCUCGUCACUCAGCAGAGCAUCUCUGAGAGAAAUGCC [U73C G126A]	2.44
UACGUAGGUGGUUUUCCCCUGAUAGUGCUAAGGGGGCCUGGAAGUUUGGACUGGGCAGAGCUCAACACAGCGCGGCAAAGUGGCUGUGGCUAGACUGCCUCUCUGGAUUCCUCGUCACUCAGCAGUGCAUCUCUGAGAGAAAUGCC [U73C G126U]	1.85
UACGUAGGUGGUUUUCCCCUGAUAGUGCUAAGGGGGCCUGGAAGUUUGGACUGGGCAGAGCUCAACACAGCGCGGCAAAGUGGCUGUGGCUAGACUGCUUCUCUGGAUUCCUCGUCACUCAGCAGGGCAUCUCUGAGAGAAAUGCC [U73C C99U]	1.06
UACGUAGGUGGUUUUCCCCUGAUAGUGCUAAGGGGGCCUGGAAGUUUGGACUGGGCAGAGCUCAACACAGCGCGGCAAAGUGGCUGUGGCUAGACUGCCUCUCUGGAUUCCUCGUCAAUCAGCAGGGCAUCUCUGAGAGAAAUGCC [U73C C118A]	1.46
UACGUAGGUGGUUUUCCCCUGAUAGUGCUAAGGGGGCCUGGAAGUUUGGACUGGGCAGAGCUCAACACAGCGCGGCAAAGUGGCUGUGGGUAGACUGCCUCUCUGGAUUCCUCGUCACUCAGCAGGGCAUCUCUGAGAGAAAUGCC [U73C C90G]	0.01
UACGUAGGUGGUUUUCCCCUGAUAGUGCUAAGGGGGCCUGGAAGUUUGGACUGGGCAGAGCUCAACACAGCGCGGCAAAGUGGCUGUGGUUAGACUGCCUCUCUGGAUUCCUCGUCACUCAGCAGGGCAUCUCUGAGAGAAAUGCC [U73C C90U]	0.01
UACGUAGGUGGUUUUCCCCUGAUAGUGCUAAGGGGGCCUGGAAGUUUGGACUGGGCAGAGCUCAACACAGCGCGGCAAAGUGGCUGUGGCUAGACUGCCUCUCUGGAUUCCUCGUCACUCAACAGGGCAUCUCUGAGAGAAAUGCC [U73C G122A]	1.19

Variant	self-cleavage
UACGUAGGUGGUUUUCCCCUGAUAGUGCUAAGGGGGCCUGGAAGUUUGGACUGGGCAGAGCUCAACACAGCGCGGCAAAGUGGCUGUGGCUAGACUGCCUCUCUGGAUUCCUCGUCACUCAGCACGGCAUCUCUGAGAGAAAUGCC [U73C G125C]	2.47
UACGUAGGUGGUUUUCCCCUGAUAGUGCUAAGGGGGCCUGGAAGUUUGGACUGGGCAGAGCUCAACACAGCGCGGCAAAGUGGCUGUGGCUAGACUGCCUCUCUGGAUUCCUCGUCACUCAGCAAGGCAUCUCUGAGAGAAAUGCC [U73C G125A]	0.8
UACGUAGGUGGUUUUCCCCUGAUAGUGCUAAGGGGGCCUGGAAGUUUGGACUGGGCAGAGCUCAACACAGCGCGGCAAAGUGGCUGUGGCUAGACUGCCUCUCUGGAUUCCUCGUCACUCAGCAGGGCAUCUCUGAGGGAAAUGCC [U73C A138G]	2.26
UACGUAGGUGGUUUUCCCCUGAUAGUGCUAAGGGGGCCUGGAAGUUUGGACUGGGCAGAGCUCAACACAGCGCGGCAAAGUGGCUGUGGCUAGACUGCCUCUCUGGAUUCCUCGUCUCUCAGCAGGGCAUCUCUGAGAGAAAUGCC [U73C A117U]	2.34
UACGUAGGUGGUUUUCCCCUGAUAGUGCUAAGGGGGCCUGGAAGUUUGGACUGGGCAGAGCUCAACACAGCGCGGCAAAGUGGCUGUGGCUAGACUGCCUCUCUGGAUUCCUCGUCGCUCAGCAGGGCAUCUCUGAGAGAAAUGCC [U73C A117G]	1.23
UACGUAGGUGGUUUUCCCCUGAUAGUGCUAAGGGGGCCUGGAAGUUUGGACUGGGCAGAGCUCAACACAGCGCGGCAAAGUGGCUGUGGCUAGACUGCCUCUCUGGAUUCCUUGUCACUCAGCAGGGCAUCUCUGAGAGAAAUGCC [U73C C113U]	1.85
UACGUAGGUGGUUUUCCCCUGAUAGUGCUAAGGGGGCCUGGAAGUUUGGACUGGGCAGAGCUCAACACAGCGCGGCAAAGUGGCUGUGGCUAGACUGCCUCUCUGGAUUCCUCGUCACUCAGCAGGGAAUCUCUGAGAGAAAUGCC [U73C C128A]	0.94
UACGUAGGUGGUUUUCCCCUGAUAGUGCUAAGGGGGCCUGGAAGUUUGGACUGGGCAGAGCUCAACACAGCGCGGCAAAGUGGCUGUGGCAAGACUGCCUCUCUGGAUUCCUCGUCACUCAGCAGGGCAUCUCUGAGAGAAAUGCC [U73C U91A]	0.57
UACGUAGGUGGUUUUCCCCUGAUAGUGCUAAGGGGGCCUGGAAGUUUGGACUGGGCAGAGCUCAACACAGCGCGGCAAAGUGGCUGUGGCUAGACUGCCUCUCUGGAUUCCUCGUCACUCAGCAGGGCAUCUCUGAGAUAAAUGCC [U73C G139U]	2.83
UACGUAGGUGGUUUUCCCCUGAUAGUGCUAAGGGGGCCUGGAAGUUUGGACUGGGCAGAGCUCAACACAGCGCGGCAAAGUGGCUGUGGCUAGACUGCCUCUCUGGAUUCCUCGUCACUCAGCAGGGCUUCUCUGAGAGAAAUGCC [U73C A129U]	2.11
UACGUAGGUGGUUUUCCCCUGAUAGUGCUAAGGGGGCCUGGAAGUUUGGACUGGGCAGAGCUCAACACAGCGCGGCAAAGUGGCUGUGGCUAGACUGCCUCUCUGGAUUCCUCGUCACUCAGCAGGGCAUCUCUAAGAGAAAUGCC [U73C G135A]	1.07
UACGUAGGUGGUUUUCCCCUGAUAGUGCUAAGGGGGCCUGGAAGUUUGGACUGGGCAGAGCUCAACACAGCGCGGCAAAGUGGCUGUGGCUAGACUGCCUCUCUGGAUUCCUCGUCACUAAGCAGGGCAUCUCUGAGAGAAAUGCC [U73C C120A]	1.97
UACGUAGGUGGUUUUCCCCUGAUAGUGCUAAGGGGGCCUGGAAGUUUGGACUGGGCAGAGCUCAACACAGCGCGGCAAAGUGGCUGUGGCUAGACUGCCUCUCUGGAUUCCUCGUCACUCAGCAGGGCAUCUCUGAUAGAAAUGCC [U73C G137U]	2.46
UACGUAGGUGGUUUUCCCCUGAUAGUGCUAAGGGGGCCUGGAAGUUUGGACUGGGCAGAGCUCAACACAGCGCGGCAAAGUGGCUGUGGCUAGACUGCCUCUCUGGAUUCCUCGUCACUCAGCAGGGCAUCUCUGAGAGAAAUGAC [U73C C145A]	1.44
UACGUAGGUGGUUUUCCCCUGAUAGUGCUAAGGGGGCCUGGAAGUUUGGACUGGGCAGAGCUCAACACAGCGCGGCAAAGUGGCUGUGGCUAGACUGCCUCUCUGGAUUCCUCGUCACUCGGCAGGGCAUCUCUGAGAGAAAUGCC [U73C A121G]	2.05
UACGUAGGUGGUUUUCCCCUGAUAGUGCUAAGGGGGCCUGGAAGUUUGGACUGGGCAGAGCUCAACACAGCGCGGCAAAGUGGCUGUGGCUAGACUGCCUCUCUGGAUUCCUCGUCACUCCGCAGGGCAUCUCUGAGAGAAAUGCC [U73C A121C]	0.54
UACGUAGGUGGUUUUCCCCUGAUAGUGCUAAGGGGGCCUGGAAGUUUGGACUGGGCAGAGCUCAACACAGCGCGGCAAAGUGGCUGUGGCUAGACUGCCUCUCUGGAUUCCUCGUCACUCAGCAGGGCAUCUCUGGGAGAAAUGCC [U73C A136G]	1.64
UACGUAGGUGGUUUUCCCCUGAUAGUGCUAAGGGGGCCUGGAAGUUUGGACUGGGCAGAGCUCAACACAGCGCGGCAAAGUGGCUGUGGCUAGACUGCCUCUCUGGGUUCCUCGUCACUCAGCAGGGCAUCUCUGAGAGAAAUGCC [U73C A107G]	2.23
UACGUAGGUGGUUUUCCCCUGAUAGUGCUAAGGGGGCCUGGAAGUUUGGACUGGGCAGAGCUCAACACAGCGCGGCAAAGUGGCUGUGGCUAGACUGCCUCUCUGGAUUCCUCGUCACUCAGCAGGUCAUCUCUGAGAGAAAUGCC [U73C G127U]	0.92
